According to publication PMC2831474 (Archives of biochemistry and biophysics, 2010):

Target: preformed F-actin (chicken pectoral muscle skeletal actin polymerized with 0.1 M KCl) (chicken, UniProt P68139 1-377)
Assay: co-sedimentation

- stoichiometry N: 0.25 ± 0.03 tropomyosin/actin molar ratio
B1: N-acetylated striated muscle long α-tropomyosin (stTM) (natural protein)
chain: not shown
modifications: N-acetylated
